Source: patent US20250136719A1 (TECHNION RESEARCH AND DEVELOPMENT FOUNDATION, published 2025)

Biological target: T1, latent 65 kDa heparanase (Hpa65) (UniProt Q9Y251 36-543, limits assumed)
T1 construct: Single-chain latent 65 kDa form coated on the ELISA plate; also called recombinant 65 kDa latent pro-heparanase; pro-heparanase
T1 sequence (looked up): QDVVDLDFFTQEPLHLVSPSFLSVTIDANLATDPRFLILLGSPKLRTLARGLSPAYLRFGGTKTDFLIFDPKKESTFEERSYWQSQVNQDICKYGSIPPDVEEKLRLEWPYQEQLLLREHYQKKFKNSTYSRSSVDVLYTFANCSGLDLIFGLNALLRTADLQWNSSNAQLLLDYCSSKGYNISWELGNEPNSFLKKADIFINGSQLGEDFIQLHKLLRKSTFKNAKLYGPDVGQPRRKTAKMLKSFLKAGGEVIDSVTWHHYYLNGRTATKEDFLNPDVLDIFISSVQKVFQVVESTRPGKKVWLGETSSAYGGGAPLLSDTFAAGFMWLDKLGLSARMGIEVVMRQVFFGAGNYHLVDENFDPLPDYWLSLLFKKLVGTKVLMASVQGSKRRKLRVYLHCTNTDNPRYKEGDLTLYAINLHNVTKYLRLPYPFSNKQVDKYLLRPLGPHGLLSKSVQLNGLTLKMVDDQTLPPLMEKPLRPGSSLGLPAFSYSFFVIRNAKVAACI
Assay: ELISA, antibody titrated on plate coated with latent 65 kDa heparanase
Description: An ELISA method was applied to characterize the preferential recognition of heparanase by mAb A54 vs. control mouse IgG (FIG. 2A). For this purpose, microtiter 96-well plate was coated with latent 65 kDa heparanase (Hpa65). Purified (protein G Sepharose) mAb A54 or control mouse IgG were then added at the indicated concentrations and the extent of binding to the immobilized heparanase was determined by ELISA. […] Next, the purified A54 mAb was subjected SDS-PAGE (FIG. 2B) and Western blot (FIG. 2C, Secondary antibody: Goat Anti-Mouse Kappa-HRP) analyses to further characterize the purity, molecular weight and isotype of the antibody light and heavy chains. Lanes M1 and M2: Protein Marker; Lane 1: Reducing condition; Lane 2: Non-reducing condition; Lane P: Mouse IgG1, Kappa as a positive control. (Ab: antibody: Goat Anti-Mouse IgG-HRP). Briefly, mAb A54 was expressed in 293F cells applying the pcDNA3.4 expression vector and serum free (Expi293F) medium. The antibody isotype was characterized as IgG1-Kappa.

IC50: 0.45 nM
B1: mAb A54 (antibody, IgG1, V domains shown)
VH: QVQLQQSGAELAKPGASVRMSCKASGYTFTNYWMHWVKQRPGQGLEWIGYINPTTGYTEYNQKFKDKATLTADKSSSTAYMQLSSLTSEDSAVYYCARGGAGYDYDEDYAMDYWGQGTSVTVSS
VL: DIVLTQSPASLAVSLGQRATISCRASESVEYFGTSYMNWYQQKPGQPPKLLIYLASILESGIPARFSGSGSGTDFTLNIHPVEEEDAATYYCQQSNEDPYTFGGGTKLEIK
notes: Murine monoclonal antibody, IgG1-Kappa; Purified on protein G from hybridoma, also expressed in 293F cells; also called A54 mAb; A54 antibody
